From US20200190501

Molecular target: T1, mini-cellulose-binding protein A (mCbpA), P38058
T1 chain: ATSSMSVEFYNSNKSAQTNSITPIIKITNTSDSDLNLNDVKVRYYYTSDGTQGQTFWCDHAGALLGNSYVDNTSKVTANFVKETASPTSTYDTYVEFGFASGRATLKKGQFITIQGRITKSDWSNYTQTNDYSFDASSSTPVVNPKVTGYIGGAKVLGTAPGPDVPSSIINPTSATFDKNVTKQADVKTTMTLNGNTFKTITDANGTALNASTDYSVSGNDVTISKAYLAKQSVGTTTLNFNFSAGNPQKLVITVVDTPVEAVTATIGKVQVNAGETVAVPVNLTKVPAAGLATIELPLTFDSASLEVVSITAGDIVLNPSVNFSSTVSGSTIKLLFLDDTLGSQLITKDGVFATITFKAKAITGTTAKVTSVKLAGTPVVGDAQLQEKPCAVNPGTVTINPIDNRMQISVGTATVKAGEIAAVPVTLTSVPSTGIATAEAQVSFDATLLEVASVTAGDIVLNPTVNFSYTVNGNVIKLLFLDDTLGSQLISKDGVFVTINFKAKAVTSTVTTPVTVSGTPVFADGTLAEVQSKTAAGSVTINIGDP

B1: dockerin-fused chimeric beta-agarase AgaB (AgaB-Doc) (protein)
chain: GDNSKFDSATDLPVEQEQEQETEQEGEPEESSEQDLVEEVDWKDIPVPADAGPNMKWEFQEISDNFEYEAPADNKGSEFLEKWDDFYHNAWAGPGLTEWKRDRSYVADGELKMWATRKPGSDKINMGCITSKTRVVYPVYIEARAKVMNSTLASDVWLLSADDTQEIDILEAYGADYSESAGKDHSYFSKKVHISHHVFIRDPFQDYQPKDAGSWFEDGTVWNKEFHRFGVYWRDPWHLEYYIDGVLVRTVSGKDIIDPKHFTNTTDPGNTEIDTRTGLNKEMDIIINTEDQTWRSSPASGLQSNTYTPTDNELSNIENNTFGVDWIRIYKPVEKVNKDGKVNAIDYAVLKSILLGTNTNVDLSVSDMNKDGKVNALDLAVLKKMLLS
  degradation activity using purified agar as a substrate: the degradation activity increased in the order of agarase, agarase-expansin, and agarase-expansin-mCbpA
